2 molecules from paper PMC3025578 can be followed below.

Series [1] addresses T1, OkrAI (Oceanospirillum kriegii, UniProt E2JKI3 1-194).
T1 sequence: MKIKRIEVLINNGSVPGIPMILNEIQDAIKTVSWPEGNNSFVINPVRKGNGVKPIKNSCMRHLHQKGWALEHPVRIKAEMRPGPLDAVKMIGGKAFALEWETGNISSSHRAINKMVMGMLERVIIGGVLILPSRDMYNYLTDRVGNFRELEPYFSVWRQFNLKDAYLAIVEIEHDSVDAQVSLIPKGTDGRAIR
Briefly: X-ray crystallography.

In series [2] the target is T1, OkrAI. As to the kind of experiment: fluorescence anisotropy.
Series [3] concerns the target T2, BamHI (Bacillus amyloliquefaciens, UniProt P23940 1-213).
T2 sequence: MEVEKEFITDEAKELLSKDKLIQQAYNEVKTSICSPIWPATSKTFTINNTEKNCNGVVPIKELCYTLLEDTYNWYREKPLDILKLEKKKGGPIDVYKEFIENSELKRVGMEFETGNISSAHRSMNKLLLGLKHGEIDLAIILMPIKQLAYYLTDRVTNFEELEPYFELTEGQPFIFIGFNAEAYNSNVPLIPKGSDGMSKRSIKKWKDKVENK
As to the kind of experiment: fluorescence anisotropy.

B1: palindromic 12-mer (dsDNA)
DNA 1: TATGGATCCATA
DNA 2: TATGGATCCATA
On to B1, for which, in series [1], the binding result is “binds”.

B2: 20-mer cognate duplex (dsDNA)
DNA 1: TATGAGCGGATCCTTACGAG
DNA 2: CTCGTAAGGATCCGCTCATA
Take B2: the values for the Kd in series [2] and in series [3] were 12.9 nM and 8.3 nM, respectively.

For orientation: Kd means the free concentration of one partner at which half of the binding sites on the other are occupied at equilibrium, for simple one-to-one binding. Lower therefore signals higher affinity.
